Results on 1 protein are retold here after FireProtDB (doi:10.1093/jb/mvq079).

One may read the Tm as the temperature at which the thermal transition is half complete.

The conditions of the data set: Escherichia coli (strain K12), whole UniProt chain shown.

B1: Divalent-cation tolerance protein CutA wild type, P69488 (protein)
chain: MLDEKSSNTASVVVLCTAPDEATAQDLAAKVLAEKLAACATLIPGATSLYYWEGKLEQEYEVQMILKTTVSHQQALLECLKSHHPYQTPELLVLPVTHGDTDYLSWLNASLR
As for B1, where the note is “pH 8, 37 °C, GdnHCl, CD, Tris-HCl, reversible: yes”, the “denaturant midpoint (higher = more stable)” value came to 2.72 M. Also, the Tm (pH 9, Thermal, DSC, glycine Buffer, transition: 2, reversible: no) was 89.9 °C.
